Test results reported in IntAct's records for PubMed 11940652.

B1: Serine/threonine-protein kinase STE20 (Saccharomyces cerevisiae), Q03497 (parent)
chain: MSNDPSAVSELPDKDSLDNGISNDNERAMGGNGDGGDGLRLPRTTGTLNVNALQKGTNAAHEAGGYKSMDPAKNAETTNDDDNNVVSLDDPIQFTRVSSSSVISGMSSSMSPHSNIDETKSLEAVTPNINTSNITPDHSADNTFSTINASESDHQFNDTLLSKLSLTDSTETIENNATVKHQQPVASSTVNSNKSSTDIRRATPVSTPVISKPSMTTTPRQINSASHSLSNPKHKQHKPKVKPSKPEAKSKPVSVKKSFPSKNPLKNSSPPKKQTEKSYYSSSSKKRKSGSNSGTLRMKDVFTSFVQNIKRNSQDDKRASSSSNNSSSSSITTALRISTPYNAKHIHHVGVDSKTGEYTGLPEEWEKLLTSSGISKREQQQNMQAVMDIVKFYQDVTETNGEDKMFKTFNTTTGLPGSPQVSTPPANSFNKFPPSTSDSHNYGSRTGTPMSNHVMSPTLNTDSSSANGKFIPSRPAPKPPSSASASAPIIKSPVMNSAANVSPLKQTHAPTTPNRTSPNRSSISRNATLKKEEQPLPPIPPTKSKTSPIISTAHTPQQVAQSPKAPAQETVTTPTSKPAQARSLSKELNEKKREERERRKKQLYAKLNEICSDGDPSTKYANLVKIGQGASGGVYTAYEIGTNVSVAIKQMNLEKQPKKELIINEILVMKGSKHPNIVNFIDSYVLKGDLWVIMEYMEGGSLTDVVTHCILTEGQIGAVCRETLSGLEFLHSKGVLHRDIKSDNILLSMEGDIKLTDFGFCAQINELNLKRTTMVGTPYWMAPEVVSRKEYGPKVDIWSLGIMIIEMIEGEPPYLNETPLRALYLIATNGTPKLKEPENLSSSLKKFLDWCLCVEPEDRASATELLHDEYITEIAEANSSLAPLVKLARLKKVAENMDADEDNDDDNDNEHINKTNNCDDNNDSKETVNLDVTEDDKQK

Variants of: B1
Details: with cdc42_yeast CDC42, P19073
Sequence of cdc42_yeast CDC42, P19073 (P19073 whole entry): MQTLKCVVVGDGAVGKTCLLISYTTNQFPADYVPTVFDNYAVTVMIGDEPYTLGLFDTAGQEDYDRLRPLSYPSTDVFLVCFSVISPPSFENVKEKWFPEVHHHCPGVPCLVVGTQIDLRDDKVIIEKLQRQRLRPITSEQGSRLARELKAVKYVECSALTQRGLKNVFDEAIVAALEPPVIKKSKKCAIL

| Variant | effect of a mutation on the interaction |
| --- | --- |
| S338A;H345G | decreasing interaction |
